Data reported in the Human Domainome abundance scans (Beltran et al. 2025).
± gives the uncertainty stated by the source.

B1: Ankyrin repeat and SOCS box protein 14, residues 532 to 572; numbered along this chain, A6NK59 (parent)
chain: RSLKHLCRLKIRKCMGRLHLRCPVFMSFLPLPNRLKAYVLY

Variants of: B1
Assay: abundance fitness (aPCA) (normalised: wild type 0, dead -1); higher = more abundant; growth selection in yeast, the domain comes from the species named
Conditions: Homo sapiens

Variant | abundance fitness
RSLKHLCRLKIRKCMGRLHLRCPVFMSFLPGPNRLKAYVLY [L31G] | -0.28 ± 0.052
RSLKHLCRLKIRKCMGRLHLRCPVFMSFLPHPNRLKAYVLY [L31H] | -0.434 ± 0.23
RSLKHLCRLKIRKCMGRLHLRCPVFMSFLPIPNRLKAYVLY [L31I] | -0.006 ± 0.072
RSLKHLCRLKIRKCMGRLHLRCPVFMSFLPKPNRLKAYVLY [L31K] | -0.529 ± 0.079
RSLKHLCRLKIRKCMGRLHLRCPVFMSFLPMPNRLKAYVLY [L31M] | -0.301 ± 0.11
RSLKHLCRLKIRKCMGRLHLRCPVFMSFLPPPNRLKAYVLY [L31P] | -0.476 ± 0.46
RSLKHLCRLKIRKCMGRLHLRCPVFMSFLPQPNRLKAYVLY [L31Q] | -0.656 ± 0.11
RSLKHLCRLKIRKCMGRLHLRCPVFMSFLPRPNRLKAYVLY [L31R] | -0.338 ± 0.05
RSLKHLCRLKIRKCMGRLHLRCPVFMSFLPSPNRLKAYVLY [L31S] | -0.113 ± 0.06
RSLKHLCRLKIRKCMGRLHLRCPVFMSFLPTPNRLKAYVLY [L31T] | -0.439 ± 0.11
RSLKHLCRLKIRKCMGRLHLRCPVFMSFLPVPNRLKAYVLY [L31V] | -0.086 ± 0.048
RSLKHLCRLKIRKCMGRLHLRCPVFMSFLPWPNRLKAYVLY [L31W] | -0.187 ± 0.049
RSLKHLCRLKIRKCMGRLHLRCPVFMSFLPYPNRLKAYVLY [L31Y] | -0.795 ± 0.14
RSLKHLCRLKIRKCMGRLHLRCPVFMSFLPLANRLKAYVLY [P32A] | 0.08 ± 0.048
RSLKHLCRLKIRKCMGRLHLRCPVFMSFLPLCNRLKAYVLY [P32C] | 0.239 ± 0.062
RSLKHLCRLKIRKCMGRLHLRCPVFMSFLPLDNRLKAYVLY [P32D] | -0.998 ± 0.29
RSLKHLCRLKIRKCMGRLHLRCPVFMSFLPLENRLKAYVLY [P32E] | -1.07 ± 0.13
RSLKHLCRLKIRKCMGRLHLRCPVFMSFLPLFNRLKAYVLY [P32F] | 0.465 ± 0.062
RSLKHLCRLKIRKCMGRLHLRCPVFMSFLPLGNRLKAYVLY [P32G] | -0.223 ± 0.05
RSLKHLCRLKIRKCMGRLHLRCPVFMSFLPLHNRLKAYVLY [P32H] | -0.47 ± 0.17
RSLKHLCRLKIRKCMGRLHLRCPVFMSFLPLINRLKAYVLY [P32I] | -0.013 ± 0.12

Variant | abundance fitness
RSLKHLCRLKIRKCMGRLHLRCPVFMSFLPLKNRLKAYVLY [P32K] | -0.179 ± 0.07
RSLKHLCRLKIRKCMGRLHLRCPVFMSFLPLLNRLKAYVLY [P32L] | 0.403 ± 0.047
RSLKHLCRLKIRKCMGRLHLRCPVFMSFLPLMNRLKAYVLY [P32M] | 0.212 ± 0.072
RSLKHLCRLKIRKCMGRLHLRCPVFMSFLPLQNRLKAYVLY [P32Q] | -0.587 ± 0.091
RSLKHLCRLKIRKCMGRLHLRCPVFMSFLPLRNRLKAYVLY [P32R] | -0.452 ± 0.048
RSLKHLCRLKIRKCMGRLHLRCPVFMSFLPLSNRLKAYVLY [P32S] | -0.363 ± 0.062
RSLKHLCRLKIRKCMGRLHLRCPVFMSFLPLWNRLKAYVLY [P32W] | 0.552 ± 0.049
RSLKHLCRLKIRKCMGRLHLRCPVFMSFLPLYNRLKAYVLY [P32Y] | 0.221 ± 0.14
RSLKHLCRLKIRKCMGRLHLRCPVFMSFLPLPARLKAYVLY [N33A] | 0.234 ± 0.046
RSLKHLCRLKIRKCMGRLHLRCPVFMSFLPLPCRLKAYVLY [N33C] | -0.151 ± 0.14
RSLKHLCRLKIRKCMGRLHLRCPVFMSFLPLPDRLKAYVLY [N33D] | 0.057 ± 0.12
RSLKHLCRLKIRKCMGRLHLRCPVFMSFLPLPERLKAYVLY [N33E] | 0.173 ± 0.049
RSLKHLCRLKIRKCMGRLHLRCPVFMSFLPLPGRLKAYVLY [N33G] | 0.216 ± 0.049
RSLKHLCRLKIRKCMGRLHLRCPVFMSFLPLPHRLKAYVLY [N33H] | 0.129 ± 0.084
RSLKHLCRLKIRKCMGRLHLRCPVFMSFLPLPIRLKAYVLY [N33I] | -0.452 ± 0.27
RSLKHLCRLKIRKCMGRLHLRCPVFMSFLPLPKRLKAYVLY [N33K] | -0.222 ± 0.09
RSLKHLCRLKIRKCMGRLHLRCPVFMSFLPLPLRLKAYVLY [N33L] | -0.432 ± 0.073
RSLKHLCRLKIRKCMGRLHLRCPVFMSFLPLPMRLKAYVLY [N33M] | -0.629 ± 0.21
RSLKHLCRLKIRKCMGRLHLRCPVFMSFLPLPPRLKAYVLY [N33P] | -0.004 ± 0.064
RSLKHLCRLKIRKCMGRLHLRCPVFMSFLPLPQRLKAYVLY [N33Q] | 0.111 ± 0.068
RSLKHLCRLKIRKCMGRLHLRCPVFMSFLPLPRRLKAYVLY [N33R] | 0.044 ± 0.046

Variant | abundance fitness
RSLKHLCRLKIRKCMGRLHLRCPVFMSFLPLPSRLKAYVLY [N33S] | 0.105 ± 0.057
RSLKHLCRLKIRKCMGRLHLRCPVFMSFLPLPWRLKAYVLY [N33W] | -0.528 ± 0.078
RSLKHLCRLKIRKCMGRLHLRCPVFMSFLPLPYRLKAYVLY [N33Y] | -0.586 ± 0.23
RSLKHLCRLKIRKCMGRLHLRCPVFMSFLPLPNALKAYVLY [R34A] | -0.255 ± 0.048
RSLKHLCRLKIRKCMGRLHLRCPVFMSFLPLPNCLKAYVLY [R34C] | -0.204 ± 0.056
RSLKHLCRLKIRKCMGRLHLRCPVFMSFLPLPNELKAYVLY [R34E] | -0.054 ± 0.1
RSLKHLCRLKIRKCMGRLHLRCPVFMSFLPLPNFLKAYVLY [R34F] | -0.168 ± 0.12
RSLKHLCRLKIRKCMGRLHLRCPVFMSFLPLPNGLKAYVLY [R34G] | -0.29 ± 0.046
RSLKHLCRLKIRKCMGRLHLRCPVFMSFLPLPNHLKAYVLY [R34H] | -0.455 ± 0.32
RSLKHLCRLKIRKCMGRLHLRCPVFMSFLPLPNKLKAYVLY [R34K] | -0.166 ± 0.094
RSLKHLCRLKIRKCMGRLHLRCPVFMSFLPLPNLLKAYVLY [R34L] | -0.709 ± 0.095
RSLKHLCRLKIRKCMGRLHLRCPVFMSFLPLPNMLKAYVLY [R34M] | -0.714 ± 0.13
RSLKHLCRLKIRKCMGRLHLRCPVFMSFLPLPNPLKAYVLY [R34P] | -0.582 ± 0.12
RSLKHLCRLKIRKCMGRLHLRCPVFMSFLPLPNQLKAYVLY [R34Q] | -0.44 ± 0.2
RSLKHLCRLKIRKCMGRLHLRCPVFMSFLPLPNSLKAYVLY [R34S] | -0.218 ± 0.066
RSLKHLCRLKIRKCMGRLHLRCPVFMSFLPLPNTLKAYVLY [R34T] | -0.203 ± 0.098
RSLKHLCRLKIRKCMGRLHLRCPVFMSFLPLPNVLKAYVLY [R34V] | -0.447 ± 0.067
RSLKHLCRLKIRKCMGRLHLRCPVFMSFLPLPNWLKAYVLY [R34W] | 0.022 ± 0.054
RSLKHLCRLKIRKCMGRLHLRCPVFMSFLPLPNYLKAYVLY [R34Y] | -0.155 ± 0.26
RSLKHLCRLKIRKCMGRLHLRCPVFMSFLPLPNRAKAYVLY [L35A] | -0.466 ± 0.058
